The target in experiment [1] is Serum IgE from a pool of birch allergic patients (human). Kind of experiment: fluid-phase IgE-inhibition assay.
The target is the same in experiment [2]. Kind of experiment: fluid-phase IgE-inhibition assay; competitor biotinylated Bet v 1 no. 2801.

B1: Bet v 1 mutant Asn28Thr+Lys32Gln (protein)
chain: GVFNYETETTSVIPAARLFKAFILDGDTLFPQVAPQAISSVENIEGNGGPGTIKKISFPEGLPFKYVKDRVDEVDHTNFKYNYSVIEGGPIGDTLEKISNEIKIVATPDGGSILKISNKYHTKGDHEVKAEQVKASKEMGETLLRAVESYLLAHSDAYN
Regarding B1, in experiment [1], the factor by which affinity is lowered vs recombinant Bet v 1 turned out to be 2 fold.

B2: Recombinant Bet v 1 No. 2801 (protein)
chain: GVFNYETETTSVIPAARLFKAFILDGDNLFPKVAPQAISSVENIEGNGGPGTIKKISFPEGLPFKYVKDRVDEVDHTNFKYNYSVIEGGPIGDTLEKISNEIKIVATPDGGSILKISNKYHTKGDHEVKAEQVKASKEMGETLLRAVESYLLAHSDAYN
With B2, the amount to reach 80% inhibition in experiment [2] is 20 ng.

B3: Bet v 1 Pro108Gly mutant (protein)
chain: GVFNYETETTSVIPAARLFKAFILDGDNLFPKVAPQAISSVENIEGNGGPGTIKKISFPEGLPFKYVKDRVDEVDHTNFKYNYSVIEGGPIGDTLEKISNEIKIVATGDGGSILKISNKYHTKGDHEVKAEQVKASKEMGETLLRAVESYLLAHSDAYN
Consider B3, for which, in experiment [1], the factor by which affinity is lowered vs recombinant Bet v 1 was 2 fold.

B4: Bet v 1 Glu45Ser mutant (protein)
chain: GVFNYETETTSVIPAARLFKAFILDGDNLFPKVAPQAISSVENISGNGGPGTIKKISFPEGLPFKYVKDRVDEVDHTNFKYNYSVIEGGPIGDTLEKISNEIKIVATPDGGSILKISNKYHTKGDHEVKAEQVKASKEMGETLLRAVESYLLAHSDAYN
For B4, in experiment [1], the factor by which affinity is lowered vs recombinant Bet v 1 was found to be 2 fold.

B5: Bet v 1 Triple-patch mutant (Asn28Thr, Lys32Gln, Glu45Ser, Pro108Gly) (protein)
chain: GVFNYETETTSVIPAARLFKAFILDGDTLFPQVAPQAISSVENISGNGGPGTIKKISFPEGLPFKYVKDRVDEVDHTNFKYNYSVIEGGPIGDTLEKISNEIKIVATGDGGSILKISNKYHTKGDHEVKAEQVKASKEMGETLLRAVESYLLAHSDAYN
As to B5, in experiment [1], the factor of decrease in affinity vs recombinant Bet v 1 (at 50% inhibition) is 5 fold and the factor of decrease vs recombinant Bet v 1 (at 80% inhibition) was determined as 20 fold. Moreover, in experiment [2], the amount to reach 80% inhibition was determined as 400 ng.

The values above are taken from patent US20040091500A1.
